Laboratory results from publication doi:10.1101/2023.11.02.565309 (bioRxiv, 2023).

Biological target: the molecule itself
Test: crystal structure

B1: ligand-binding domain of GluK2 (GluK2-LBD), S1-GT-S2 construct (domain or fragment, Rattus norvegicus)
chain: NRSLIVTTILEEPYVLFKKSDKPLYGNDRFEGYCIDLLRELSTILGFTYEIRLVEDGKYGAQDDVNGQWNGMVRELIDHKADLAVAPLAITYVREKVIDFSKPFMTLGISILYRKGTPIDSADDLAKQTKIEYGAVEDGATMTFFKKSKISTYDKMWAFMSSRRQSVLVKSNEEGIQRVLTSDYAFLMESTTIEFVTQRNCNLTQIGGLIDSKGYGVGTPMGSPYRDKITIAILQLQEEGKLHMMKEKWWRGNGCP
- stoichiometry N: 2
